Test results from paper PMC11480844 (2024).

B1: H2-Kb / Ed45 (parent complex)
chain 1: GEQVEQRPPHLSVREGDSAVIICTYTDPNSYYFFWYKQEPGAGLQLLMKVFSSTEINEGQGFTVLLNKKDKQLSLNLTAAHPGDSAVYFCAVSGTNAYKVIFGKGTHLHVLP
chain 2: EAAVTQSPRSKVAVTGGKVTLSCHQTNNHDYMYWYRQDTGHGLRLIHYSYVADSTEKGDIPDGYKASRPSQENFSLILELASLSQTAVYFCASARGFQDTQYFGPGTRLLVL
chain 3: not shown
chain 4: IQKTPQIQVYSRHPPENGKPNILNCYVTQFHPPHIEIQMLKNGKKIPKVEMSDMSFSKDWSFYILAHTEFTPTETDTYACRVKHDSMAEPKTVYWDRDM
chain 5: SIINFEKL
B2: H2-Kb / Ed5 (parent complex)
chain 1: GDSVTQTEGPVTVSESESLIINCTYSATSIAYPNLFWYVRYPGEGLQLLLKVITAGQKGSSRGFEATYNKETTSFHLQKASVQESDSAVYYCALGSYNQGKLIFGQGTKLSIKP
chain 2: DTTVKQNPRYKLARVGKPVNLICSQTMNHDTMYWYQKKPNQAPKLLLFYYDKILNREADTFEKFQSSRPNNSFCSLYIGSAGLEYSAMYLCASSRRLGASQNTLYFGAGTRLSVL
chain 3: not shown
chain 4: B1 chain 4
chain 5: SIINFEKL

Variants of: B1
Test: % of reporter cells activated (NFAT-GFP), raw
Note: test concentration or dose not given here.

Row | ratio to parent | Variant
1 | 1.11 | chain 5 N4I
2 | 1.34 | chain 5 K7S
3 | 0.0583 | chain 5 S1L
4 | 1.79 | chain 5 L8Q
5 | 0.91 | chain 5 E6T
6 | 0.719 | chain 5 F5L

Variants of: B2
Test: % of reporter cells activated (NFAT-GFP), raw

Row | ratio to parent | Variant
7 | 0.182 | chain 5 N4L
8 | 0.374 | chain 5 N4R
9 | 0.04 | chain 5 N4T
10 | 0.002 | chain 5 N4A
11 | 0.274 | chain 5 N4I
12 | 0.00398 | chain 5 N4G
13 | 0.00233 | chain 5 N4E
14 | 0.756 | chain 5 N4D
15 | 0.164 | chain 5 N4C
16 | 0.00458 | chain 5 N4Q
17 | 0.0536 | chain 5 N4Y
18 | 0.0358 | chain 5 N4W
19 | 0.0781 | chain 5 N4K
20 | 0.0112 | chain 5 N4F
21 | 0.00308 | chain 5 N4P
22 | 0.11 | chain 5 N4H
23 | 0.0018 | chain 5 N4S
24 | 0.00113 | chain 5 N4M
25 | 0.764 | chain 5 F5R
26 | 0.822 | chain 5 F5H
27 | 0.951 | chain 5 F5Q
28 | 0.98 | chain 5 F5P
29 | 0.886 | chain 5 F5I
30 | 0.695 | chain 5 F5W

Row | ratio to parent | Variant
31 | 1.04 | chain 5 F5C
32 | 0.735 | chain 5 F5S
33 | 0.777 | chain 5 F5V
34 | 0.698 | chain 5 F5G
35 | 0.855 | chain 5 F5N
36 | 0.892 | chain 5 F5Y
37 | 0.848 | chain 5 F5E
38 | 0.905 | chain 5 F5K
39 | 0.996 | chain 5 F5L
40 | 0.887 | chain 5 F5T
41 | 0.938 | chain 5 F5M
42 | 1.01 | chain 5 F5A
43 | 1 | chain 5 I2T
44 | 0.989 | chain 5 I2S
45 | 0.958 | chain 5 I2C
46 | 1.01 | chain 5 I2A
47 | 0.851 | chain 5 I2F
48 | 0.641 | chain 5 I2R
49 | 0.749 | chain 5 I2N
50 | 0.875 | chain 5 I2G
51 | 0.66 | chain 5 I2W
52 | 1.01 | chain 5 I2V
53 | 0.943 | chain 5 I2D
54 | 0.642 | chain 5 I2Y

Row | ratio to parent | Variant
55 | 0.711 | chain 5 I2Q
56 | 0.974 | chain 5 I2L
57 | 0.763 | chain 5 I2H
58 | 1.04 | chain 5 I2P
59 | 0.798 | chain 5 I2K
60 | 0.852 | chain 5 I2E
61 | 0.0946 | chain 5 S1P
62 | 0.981 | chain 5 S1E
63 | 0.02 | chain 5 S1M
64 | 0.374 | chain 5 S1W
65 | 0.00825 | chain 5 S1I
66 | 0.944 | chain 5 S1T
67 | 0.559 | chain 5 S1H
68 | 0.126 | chain 5 S1V
69 | 0.161 | chain 5 S1C
70 | 0.0134 | chain 5 S1L
71 | 0.629 | chain 5 S1D
72 | 0.305 | chain 5 S1N
73 | 0.685 | chain 5 S1K
74 | 0.293 | chain 5 S1R
75 | 0.0691 | chain 5 S1F
76 | 0.556 | chain 5 S1Q
77 | 0.689 | chain 5 S1Y
78 | 0.491 | chain 5 S1G

Row | ratio to parent | Variant
79 | 0.904 | chain 5 L8R
80 | 0.848 | chain 5 L8Y
81 | 0.671 | chain 5 L8T
82 | 0.747 | chain 5 L8D
83 | 0.641 | chain 5 L8S
84 | 0.752 | chain 5 L8M
85 | 0.546 | chain 5 L8V
86 | 0.783 | chain 5 L8Q
87 | 0.901 | chain 5 L8G
88 | 0.929 | chain 5 L8C
89 | 0.629 | chain 5 L8E
90 | 0.753 | chain 5 L8N
91 | 0.793 | chain 5 L8K
92 | 0.958 | chain 5 L8H
93 | 0.826 | chain 5 L8P
94 | 0.758 | chain 5 L8I
95 | 0.711 | chain 5 L8A
96 | 0.585 | chain 5 L8W
97 | 0.657 | chain 5 K7F
98 | 0.853 | chain 5 K7R
99 | 0.717 | chain 5 K7Y
100 | 0.593 | chain 5 K7D
101 | 0.728 | chain 5 K7P
102 | 0.605 | chain 5 K7S

Row | ratio to parent | Variant
103 | 0.725 | chain 5 K7M
104 | 0.602 | chain 5 K7T
105 | 0.798 | chain 5 K7H
106 | 0.65 | chain 5 K7I
107 | 0.645 | chain 5 K7A
108 | 0.62 | chain 5 K7V
109 | 0.728 | chain 5 K7L
110 | 0.632 | chain 5 K7E
111 | 0.686 | chain 5 K7C
112 | 0.714 | chain 5 K7N
113 | 0.658 | chain 5 K7G
114 | 0.673 | chain 5 I3C
115 | 0.329 | chain 5 I3S
116 | 0.372 | chain 5 I3W
117 | 0.0887 | chain 5 I3F
118 | 0.28 | chain 5 I3G
119 | 0.121 | chain 5 I3H
120 | 0.682 | chain 5 I3K
121 | 0.36 | chain 5 I3P
122 | 0.32 | chain 5 I3A
123 | 0.723 | chain 5 I3M
124 | 0.436 | chain 5 I3D
125 | 0.661 | chain 5 I3V
126 | 0.164 | chain 5 I3N

Row | ratio to parent | Variant
127 | 0.287 | chain 5 I3E
128 | 0.064 | chain 5 I3R
129 | 0.897 | chain 5 I3L
130 | 0.0245 | chain 5 I3Y
131 | 0.512 | chain 5 I3T
132 | 0.619 | chain 5 E6Q
133 | 0.165 | chain 5 E6L
134 | 0.498 | chain 5 E6N
135 | 0.901 | chain 5 E6K
136 | 0.506 | chain 5 E6F
137 | 0.622 | chain 5 E6T
138 | 0.585 | chain 5 E6S
139 | 0.554 | chain 5 E6H
140 | 0.491 | chain 5 E6C
141 | 0.939 | chain 5 E6G
142 | 0.54 | chain 5 E6W
143 | 0.618 | chain 5 E6V
144 | 0.606 | chain 5 E6A
145 | 0.0689 | chain 5 E6R
146 | 0.443 | chain 5 E6M
147 | 0.533 | chain 5 E6I
148 | 0.633 | chain 5 E6Y
149 | 0.941 | chain 5 E6D
150 | 0.186 | chain 5 E6P
